Measurements taken from the Immune Epitope Database (IEDB).

Assays:
HLA-A*01:01 = assay: IEDB peptide-MHC binding, purified MHC/direct/fluorescence; filed as Kd, often an IC50 or EC50 that approximates it; ≥ and ≤ were set here for values at or beyond the usual limits of such assays
HLA-A*02:01 [1] = assay: as above
HLA-A*03:01 = assay: as above
HLA-A*11:01 = assay: as above
HLA-A*24:02 = assay: as above
HLA-A*26:01 = assay: as above
HLA-A*69:01 = assay: as above
HLA-B*07:02 [2] = assay: as above
HLA-B*08:01 [3] = assay: as above
HLA-B*08:02 = assay: as above
HLA-B*15:01 [4] = assay: as above
HLA-B*27:05 = assay: as above
HLA-B*40:01 = assay: as above
HLA-B*44:02 = assay: as above
HLA-B*46:01 = assay: as above
HLA-B*58:01 = assay: as above
HLA-A*31:01 [5] = assay: as above
HLA-A*24:03 = assay: as above; conditions: source organism: Francisella tularensis subsp. holarctica LVS
HLA-B*15:09 = assay: as above; conditions: source organism: Francisella tularensis subsp. tularensis FSC033
HLA-B*18:01 = assay: as above
HLA-A*02:01 [6] = assay: IEDB peptide-MHC binding, purified MHC/competitive/fluorescence; filed as Kd, often an IC50 or EC50 that approximates it; ≥ and ≤ were set here for values at or beyond the usual limits of such assays; conditions: source organism: Francisella tularensis subsp. tularensis FSC198
HLA-A*26:02 = assay: as above; conditions: source organism: Francisella tularensis subsp. tularensis FSC198
HLA-A*26:03 = assay: as above
HLA-A*31:01 [7] = assay: as above; conditions: source organism: Francisella tularensis subsp. tularensis FSC198
HLA-A*68:02 = assay: as above
HLA-B*15:17 [8] = assay: as above; conditions: source organism: Francisella tularensis subsp. tularensis FSC198
HLA-B*57:01 [9] = assay: as above; conditions: source organism: Francisella tularensis subsp. tularensis FSC198
HLA-B*08:03 = assay: IEDB peptide-MHC binding, purified MHC/direct/fluorescence; filed as Kd, often an IC50 or EC50 that approximates it; ≥ and ≤ were set here for values at or beyond the usual limits of such assays; conditions: source organism: Mycobacterium tuberculosis C
HLA-B*15:17 [10] = assay: as above; conditions: source organism: Mycobacterium tuberculosis
HLA-B*48:01 = assay: as above; conditions: source organism: Mycobacterium tuberculosis
HLA-B*57:01 [11] = assay: as above; conditions: source organism: Mycobacterium tuberculosis
HLA-A*30:01 = assay: IEDB peptide-MHC binding, purified MHC/competitive/fluorescence; filed as Kd, often an IC50 or EC50 that approximates it; ≥ and ≤ were set here for values at or beyond the usual limits of such assays; conditions: source organism: Mycobacterium tuberculosis C
HLA-B*07:02 [12] = assay: as above; conditions: source organism: Mycobacterium tuberculosis C
HLA-B*08:01 [13] = assay: as above; conditions: source organism: Mycobacterium tuberculosis C
HLA-B*15:01 [14] = assay: as above; conditions: source organism: Mycobacterium tuberculosis C
[15] = source organism: Influenza A virus (A/goose/Hong Kong/8/1976(H1N1))
[16] = source organism: Influenza A virus(A/swine/Shandong/fNY/2003(H9N2))
[17] = source organism: Influenza A virus (A/Puerto Rico/8/34/Mount Sinai(H1N1))
[18] = source organism: Shigella flexneri
[19] = source organism: Francisella tularensis subsp. holarctica LVS
[20] = source organism: Francisella tularensis subsp. tularensis FSC033
[21] = source organism: Francisella tularensis subsp. tularensis FSC198
[22] = source organism: Influenza A virus (A/chicken/Vietnam/5/2003(H5N1))
[23] = source organism: Mycobacterium tuberculosis
[24] = source organism: Mycobacterium tuberculosis C

KTTYWWDGL
Kd (HLA-A*01:01; [15]): ≥ 20 µM
Kd (HLA-A*02:01 [1]; [15]): ≥ 20 µM
Kd (HLA-A*03:01; [15]): ≥ 20 µM
Kd (HLA-A*11:01; [15]): ≥ 20 µM
Kd (HLA-A*24:02; [15]): ≥ 20 µM
Kd (HLA-A*26:01; [16]): ≥ 20 µM
Kd (HLA-A*69:01; [15]): ≥ 20 µM
Kd (HLA-B*07:02 [2]; [15]): ≥ 20 µM
Kd (HLA-B*08:01 [3]; [15]): ≥ 20 µM
Kd (HLA-B*08:02; [16]): ≥ 20 µM
Kd (HLA-B*15:01 [4]; [15]): ≥ 20 µM
Kd (HLA-B*27:05; [15]): ≥ 20 µM
Kd (HLA-B*40:01; [17]): ≥ 5 µM
Kd (HLA-B*44:02; [15]): ≥ 20 µM
Kd (HLA-B*46:01; [15]): ≥ 20 µM
Kd (HLA-B*58:01; [15]): ≥ 5 µM

LSSIGIPAY
Kd (HLA-A*01:01; [18]): 0.366 µM
Kd (HLA-A*02:01 [1]; [18]): ≥ 20 µM
Kd (HLA-A*03:01; [18]): ≥ 20 µM
Kd (HLA-A*11:01; [18]): ≥ 20 µM
Kd (HLA-A*24:02; [18]): ≥ 20 µM
Kd (HLA-A*31:01 [5]; [18]): ≥ 20 µM
Kd (HLA-A*69:01; [18]): ≥ 20 µM
Kd (HLA-B*07:02 [2]; [18]): ≥ 20 µM
Kd (HLA-B*15:01 [4]; [18]): 0.304 µM
Kd (HLA-B*27:05; [18]): ≥ 20 µM
Kd (HLA-B*40:01; [18]): ≥ 20 µM
Kd (HLA-B*44:02; [18]): ≥ 20 µM
Kd (HLA-B*58:01; [18]): 0.178 µM

RYLNIYQLW
Kd (HLA-A*24:02; source organism: Cryptosporidium parvum Iowa II): 0.002 µM

IYTVIYYIF
Kd (HLA-A*01:01; [19]): ≥ 20 µM
Kd (HLA-A*11:01; [19]): ≥ 20 µM
Kd (HLA-A*24:03): 0.27 µM
Kd (HLA-B*07:02 [2]; [19]): ≥ 20 µM
Kd (HLA-B*08:01 [3]; [20]): ≥ 20 µM
Kd (HLA-B*08:02; [20]): ≥ 20 µM
Kd (HLA-B*15:01 [4]; [19]): ≥ 20 µM
Kd (HLA-B*15:09): ≥ 20 µM
Kd (HLA-B*18:01; [20]): 8.93 µM
Kd (HLA-B*58:01; [20]): 0.15 µM
Kd (HLA-A*02:01 [6]): ≥ 20 µM
Kd (HLA-A*26:02): 1.13 µM
Kd (HLA-A*26:03; [21]): ≥ 20 µM
Kd (HLA-A*31:01 [7]): ≥ 20 µM
Kd (HLA-A*68:02; [21]): 3.96 µM
Kd (HLA-B*15:17 [8]): 0.439 µM
Kd (HLA-B*57:01 [9]): ≥ 20 µM

QTYDWTLNR
Kd (HLA-A*01:01; [22]): ≥ 20 µM
Kd (HLA-A*02:01 [1]; [22]): ≥ 20 µM
Kd (HLA-A*03:01; [17]): 0.376 µM
Kd (HLA-A*24:02; [22]): ≥ 20 µM
Kd (HLA-B*07:02 [2]; [22]): ≥ 20 µM
Kd (HLA-B*08:01 [3]; [22]): ≥ 20 µM
Kd (HLA-B*08:02; source organism: Influenza A virus(A/swine/Henan/3/2004(H9N2))): ≥ 20 µM
Kd (HLA-B*15:01 [4]; [22]): ≥ 20 µM
Kd (HLA-B*18:01; [22]): ≥ 20 µM
Kd (HLA-B*27:05; [22]): ≥ 20 µM
Kd (HLA-B*40:01; [22]): ≥ 20 µM
Kd (HLA-B*44:02; [22]): ≥ 20 µM
Kd (HLA-B*46:01; [22]): ≥ 20 µM
Kd (HLA-B*58:01; [22]): ≥ 20 µM

TIHLATAPK
Kd (HLA-A*01:01; [23]): ≥ 20 µM
Kd (HLA-A*11:01; [23]): 0.0087 µM
Kd (HLA-A*26:01; [24]): ≥ 20 µM
Kd (HLA-A*31:01 [5]; [23]): 0.653 µM
Kd (HLA-A*69:01; [23]): 2.33 µM
Kd (HLA-B*08:02; [24]): ≥ 20 µM
Kd (HLA-B*08:03): ≥ 20 µM
Kd (HLA-B*15:17 [10]): ≥ 20 µM
Kd (HLA-B*18:01; [23]): ≥ 20 µM
Kd (HLA-B*27:05; [23]): ≥ 20 µM
Kd (HLA-B*40:01; [23]): ≥ 20 µM
Kd (HLA-B*46:01; [23]): ≥ 20 µM
Kd (HLA-B*48:01): ≥ 20 µM
Kd (HLA-B*57:01 [11]): ≥ 20 µM
Kd (HLA-B*58:01; [23]): ≥ 20 µM
Kd (HLA-A*26:03; [24]): ≥ 20 µM
Kd (HLA-A*30:01): 0.0002 µM
Kd (HLA-A*68:02; [24]): 0.76 µM
Kd (HLA-B*07:02 [12]): ≥ 20 µM
Kd (HLA-B*08:01 [13]): ≥ 20 µM
Kd (HLA-B*15:01 [14]): ≥ 20 µM
